{
  "source": "paper PMC9741594",
  "origin": "cited, not measured here",
  "target": "T1, Internalin A (on whole Listeria monocytogenes cells) (Listeria monocytogenes (strain not given in the material)) (UniProt P0DJM0)",
  "T1 sequence": "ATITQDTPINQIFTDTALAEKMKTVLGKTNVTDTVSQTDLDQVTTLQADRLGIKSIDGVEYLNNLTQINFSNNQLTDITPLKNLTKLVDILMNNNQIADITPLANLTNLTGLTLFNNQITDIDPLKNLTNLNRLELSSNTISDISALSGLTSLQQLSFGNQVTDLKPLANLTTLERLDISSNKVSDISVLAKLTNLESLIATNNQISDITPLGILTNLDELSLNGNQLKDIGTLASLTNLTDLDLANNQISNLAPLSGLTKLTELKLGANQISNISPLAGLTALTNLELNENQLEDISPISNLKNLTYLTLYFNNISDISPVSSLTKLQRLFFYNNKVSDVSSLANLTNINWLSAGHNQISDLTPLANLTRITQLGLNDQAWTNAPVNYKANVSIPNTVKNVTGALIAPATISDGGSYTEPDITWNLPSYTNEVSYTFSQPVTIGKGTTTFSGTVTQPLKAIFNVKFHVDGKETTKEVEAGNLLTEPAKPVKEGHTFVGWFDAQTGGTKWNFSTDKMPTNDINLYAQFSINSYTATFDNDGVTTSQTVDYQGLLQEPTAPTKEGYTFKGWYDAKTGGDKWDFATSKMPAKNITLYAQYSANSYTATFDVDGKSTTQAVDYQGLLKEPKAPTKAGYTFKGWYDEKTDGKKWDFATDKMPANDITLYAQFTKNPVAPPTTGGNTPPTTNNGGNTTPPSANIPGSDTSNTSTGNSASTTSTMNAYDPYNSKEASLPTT",
  "assay": "not stated (cited)",
  "conditions": "printed as KD = 103 CFU/mL, read as 10^3; whole-cell units; 5' amine (immobilized by carbodiimide chemistry on ALG-thiomer/Pt); 5' thiol version also made; PBS, whole L. monocytogenes cells, 15 min capture at pH 7 (extended brush), EIS at pH 3 (collapsed), room temperature; also chicken broth",
  "data": [
    {"sequence": "ATCCATGGGGCGGAGATGAGGGGGAGGAGGGCGGGTACCCGGTTGAT [A8 anti-Internalin A aptamer]", "values": [
      {"measurement": "Kd", "value": 1000, "unit": "CFU/mL"}
    ]}
  ]
}
